According to US9932390 (SHRINERS HOSPITAL FOR CHILDREN, dated 2018):
Positions of bridges follow the written chain, without caps; N, C: chain ends. Chains are numbered I, II in the order given. No end group written: not given here.

T1: α2NC2 (NC2 domain of the human collagen IX α2 chain) (human)
T1 construct: Expressed as the Trx_α2NC2 fusion and cleaved with thrombin; also called U2
T1 peptide: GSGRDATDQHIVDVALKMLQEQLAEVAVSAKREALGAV

T2: α3NC2-(GPP)5CC (human, not fully specified; chain 1: Cys60 and Cys61 (collagen III cystine knot) form interchain disulfides in the oxidized trimer. Cys15 is also counted as oxidized in the calculated trimer mass.)
T2 construct: Mixed and reoxidized as a His-tagged thioredoxin fusion, then characterized after thrombin cleavage as part of α123NC2-(GPP)5CC; also called Trx_α3NC2-(GPP)5CC (before thrombin cleavage)
T2 peptide: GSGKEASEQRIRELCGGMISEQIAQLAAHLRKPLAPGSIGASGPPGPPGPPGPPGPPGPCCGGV

B1: disulfide-bonded α1NC2-α3NC2 (NC2 domains of the human collagen IX α1 and α3 chains, linked by a disulfide) (other)
chain 1: GSPTDQHIKQVCMRVIQEHFAEMAASLKRPDS
chain 2: GSASEQRIRELCGGMISEQIAQLAAHLRKPLAP
modifications: disulfide I:12-II:12 (inferred)
notes: Part of the α123NC2 complex after removal of His-tagged thioredoxin; also called α1-α3; U13
B2: α1NC2-(GPP)5CC (peptide)
peptide: GSGYPGRAPTDQHIKQVCMRVIQEHFAEMAASLKRPDSGATGASGPPGPPGPPGPPGPPGPCCGGV
modifications: not fully specified; also: interchain disulfides via Cys62 and Cys63 in the trimer with other chains
notes: Mixed and reoxidized as a His-tagged thioredoxin fusion, then characterized after thrombin cleavage as part of α123NC2-(GPP)5CC; also called Trx_α1NC2-(GPP)5CC (before thrombin cleavage)

Key:
[1] = molecular target: T1, α2NC2 (NC2 domain of the human collagen …); assay: CD at 222 nm, thermal transition at 18.7 µM complex, pH 4.5, bimolecular two-state fit
Method: (§1) FIG. 9. Thermal transitions of the NC2-containing complexes. A, Thermal transition curves of α123NC2-(GPP)_5CC were recorded in 50 mM sodium acetate buffer, pH 4.5, supplemented with 0M (green circles), 1M (red circles for heating and blue circles for cooling), and 2M (cyan circles) guanidine hydrochloride using 7 μM complex concentrations and a 1-mm path length quartz cuvette. The change in collagen triple helical and α-helical contents was monitored at 230 nm with a scan rate of 1° C./min. […] The first transition followed by the increase of the CD signal is associated with the unfolding of the collagen triple helix, whereas the second transition is associated with the unfolding of the NC2 domain. […] The change in α-helical content was monitored at 222 nm with a scan rate of 0.25° C./min. The curves were globally fitted (white lines) as described herein.
(§2) Since the α1NC2 chain is disulfide-linked to the α3NC2 chain, only two products dissociates from the complex upon denaturation and the folding reaction should be considered as bimolecular. According to this and other assumptions (see 1.1.-1.10., above), two transitions using a 10-fold difference in concentrations of the complex were separately globally fitted and yielded similar values of the standard enthalpy, $\Delta H^0$, and the standard entropy, $\Delta S^0$.

[2] = molecular target: T1, α2NC2 (NC2 domain of the human collagen …); assay: CD at 222 nm, thermal transition at 1.87 µM complex, pH 4.5, bimolecular two-state fit
Method: as §1, §2

α3NC2-(GPP)5CC = molecular target: T2, α3NC2-(GPP)5CC; assay: oxidative folding of the three Trx fusions, non-reducing SDS-PAGE
Method: Initially the purified constructs either with or without collagenous part were folded under the same oxidative conditions. The three chains of approximately equal concentrations were mixed, diluted with water and the buffer was adjusted to 100 mM Tris/HCl buffer, pH 8.6, containing 15 mM Na-phosphate, 150 mM NaCl, 150 mM imidazol, 10 mM reduced glutathione, 1 mM oxidized glutathione at 25° C. Final concentration of each chain was ~10 µM. The solution was sequentially incubated at 37° C. for 24 hours, at 30° C. for 24 hours, 25° C. for 24 hours and the pH value was periodically checked and adjusted to be not lower than 8.3. Finally, the solution was extensively dialyzed against 50 mM Tris/HCl buffer, pH 8, containing 150 mM NaCl, at room temperature to remove imidazol and reducing agents.
1.11.3. Results: Initial Purification of Fusion Proteins Trx_α1NC2-(GPP)_5C, Trx_α2NC2-(GPP)_5CC and Trx_α3NC2-(GPP)5CC and their Reoxidation Soluble fractions of cell lysates were separately purified over the Ni-NTA resin and analyzed on a gel (FIG. 2A, lanes 1-3). In addition to bands corresponding to monomeric species around 20 kDa, dimeric, trimeric and ladders of higher multimers were observed, indicating formation of multiple intermolecular disulfide bonds, presumably due to misfolding. […]

Row | Binder | Tm (midpoint of the coupled unfolding and dissociation) [1] [° C.] | ΔH^0 (standard enthalpy of U13+U2 to N) [1] | ΔS^0 (standard entropy of U13+U2 to N) [1] | Tm (midpoint of the coupled unfolding and dissociation) [2] [° C.] | ΔH^0 (standard enthalpy of U13+U2 to N) [2] | ΔS^0 (standard entropy of U13+U2 to N) [2] | binding result (α3NC2-(GPP)5CC)
1 | B1 | 65.8 | -203 kJ/(mol complex) | -502 J/(mol complex K) | 51.2 | -200 kJ/(mol complex) | -500 J/(mol complex K) | 
2 | B2 |  |  |  |  |  |  | binds
